Test [1] addresses CD19-targeting first-generation 19z1 CAR. As to the kind of experiment: flow cytometry on CAR+ PG13 fibroblasts, FL2-H PE against FL1-H FITC (no staining), live gate, 7308 events; lower left panel, sample line '19z1-19E9-PE 1 to 1000', same position as 19z1 in FIG. 18A and 18C; first panel (PG13 sample line) in the same gate: 0. For orientation: In flow cytometry, cells or beads pass a laser one at a time.

The target of test [2] is first-generation PSMA-targeting Pz1 CAR. As to the kind of experiment: flow cytometry on CAR+ PG13 fibroblasts, FL2-H PE against FL1-H FITC (no staining), live gate, 9029 events; lower right panel, taken as Pz1 from the panel order of FIG. 18A and 18C; first panel (PG13 sample line) in the same gate: 0.
The target in test [3] is CD19-targeting first-generation 19z1 CAR. As to the kind of experiment: flow cytometry on PG13 fibroblasts expressing the 19z1 CAR (panel title '19z1', sample line '19z 1-12D11-H'), 12D11 detected with anti-hamster IgG FITC, FL1-H FITC against FL2-H PE, live gate, 7334 events; parental PG13 cells in the same gate: 0.85.
For test [4], the target named is first-generation PSMA-targeting Pz1 CAR. As to the kind of experiment: flow cytometry on PG13 fibroblasts expressing the Pz1 CAR (panel title 'PZ1', sample line 'PZ1-12D11-H'), 12D11 detected with anti-hamster IgG FITC, FL1-H FITC against FL2-H PE, live gate, 9102 events; parental PG13 cells in the same gate: 0.85.
Test [5] addresses CD19-targeting second-generation 1928z CAR. As to the kind of experiment: flow cytometry on PG13 fibroblasts expressing the 1928z CAR (panel title '19-28z1 cells', sample line '1928z 1-12D11-H'), 12D11 detected with anti-hamster IgG FITC, FL1-H FITC against FL2-H PE, live gate, 9569 events; parental PG13 cells in the same gate: 0.85.

B1: 19E3 monoclonal antibody (antibody, V domains shown)
VH: EVQLVESGGGLVQTGKSLKLSCEASGFTFSDFDMNWVRQAPGKGLEWVAYINGGSGVIFYADAVKGRFTISRDNAKNLLFLQMNNLKSEDSAMYYCAREELGRRYYFDYWGQGTMVTVSS
VL: SQPVLTQSPSASASLSGSVKLTCTLSSEHSSYNIAWYQQHPDKAPKYVMYLKSDGSHFKGDGIPDRFSGSSSGAHRYLSISNVQSEDDATYFCGAGYTISGQYGYVFDSGTQLTVLG
B1: the figures for the gate frequency (percent of live events in the PE-positive gate) in test [1] and in test [2] were 99.2 and 0.011, respectively.

B2: 12D11 monoclonal antibody (antibody, V domains shown)
VH: AVRLLESGGGLVKPEGALKLSCVASGFDLSDYFMGWVRQAPGKGLEWVAHIYPQSYDYATYYSGSVQGRFTISRDDSRSMVYLQMNNLRTEDTATYYCTKDGDVGFWGQGTMVTVSS
VL: DIQVTQSPTLLSASLGDKVTINCLASQDISNELNWYQQKSGQSPTLLIYNGKNLQSGVPSRFSGQYSGRSFTISINNVEPEDVATYFCLQHYSFPLTFGDGSKLEMKR
As for B2, the gate frequency (percent of live events in the FITC-positive gate) in test [3] is 96.3; in test [4] it was 76.4; in test [5], 67.9.

Values taken from patent US20260193378A1.
